Earlier results in publication PMC11603612.

What was measured:
Asp46 = Asp46 (UniProt position 796, HLSDEDFKAVF)
Glu45 = Glu45 (UniProt position 795, NHLSDEDFKAV)
Glu72 = Glu72 (UniProt position 822, QNLKKEKGLF-)
Asp44 = Asp44 (UniProt position 794, ENHLSDEDFKA)
Asp38 = Asp38 (UniProt position 64, RNLTKDRCKPV)
Glu9 = Glu9 (UniProt position 35, AAAKFERQHMD)
Glu111 = Glu111 (UniProt position 137, IIVACEGNPYV)
Glu86 = Glu86 (UniProt position 112, ITDCRETGSSK)
Asp14 = Asp14 (UniProt position 40, ERQHMDSSTSA)
His48 = His48 (UniProt position 74, VNTFVHESLAD)
Asp83 = Asp83 (UniProt position 109, TMSITDCRETG)
Asp53 = Asp53 (UniProt position 79, HESLADVQAVC)
Glu49 = Glu49 (UniProt position 75, NTFVHESLADV)
His119 = His119 (UniProt position 145, PYVPVHFDASV)
His12 = His12 (UniProt position 38, KFERQHMDSST)
Asp121 = Asp121 (UniProt position 147, VPVHFDASV--)
His105 = His105 (UniProt position 131, TQANKHIIVAC)
Glu2 = Glu2 (UniProt position 28, PSLGKETAAAK)
Glu75 = Glu75 (UniProt position 157, KKIEVEFDKGQ)
His8 = His8 (UniProt position 90, STKKLHKEPAT)
Asp40 = Asp40 (UniProt position 122, RLLLVDTPETK)
Glu122 = Glu122 (UniProt position 204, PNNTHEQHLRK)
Glu43 = Glu43 (UniProt position 125, LVDTPETKHPK)
Glu101 = Glu101 (UniProt position 183, GKMVNEALVRQ)
Asp19 = Asp19 (UniProt position 101, LIKAIDGDTVK)
Asp21 = Asp21 (UniProt position 103, KAIDGDTVKLM)
His121 = His121 (UniProt position 203, KPNNTHEQHLR)
Glu129 [1] = biological target: Glu129 (UniProt position 211, HLRKSEAQAKK)
Glu52 = Glu52 (UniProt position 134, PKKGVEKYGPE)
Glu10 = Glu10 (UniProt position 92, KKLHKEPATLI)
Asp95 = Asp95 (UniProt position 177, AYIYADGKMVN)
Glu73 = Glu73 (UniProt position 155, NAKKIEVEFDK)
Glu67 = Glu67 (UniProt position 149, TKKMVENAKKI)
Glu57 [2] = biological target: Glu57 (UniProt position 139, EKYGPEASAFT)
Glu135 [3] = biological target: Glu135 (UniProt position 217, AQAKKEKLNIW)
Asp8 [4] = system: Asp8
Asp122 = Asp122 (UniProt position 149, PSIDGDRTTFT)
Asp5 = Asp5 (UniProt position 32, SAASTDYWQNW)
Asp12 = Asp12 (UniProt position 39, WQNWTDGGGIV)
His157 = His157 (UniProt position 184, NAWKSHGMNLG)
Glu79 = Glu79 (UniProt position 106, RSPLIEYYVVD)
Asp120 = Asp120 (UniProt position 147, NAPSIDGDRTT)
Asp107 = Asp107 (UniProt position 134, DGGTYDIYTTT)
Glu48 [5] = biological target: Glu48 (UniProt position 48, NLKALEAQKQK)
Asp23 = Asp23 (UniProt position 23, IKNVADGYANN)
Glu38 = Glu38 (UniProt position 38, QGLAIEATPAN)
Glu54 = Glu54 (UniProt position 54, AQKQKEQRQAA)
Asp8 [6] = biological target: Asp8 (UniProt position 8, VIFLKDVKGKG)
Glu17 = Glu17 (UniProt position 17, KGKKGEIKNVA)
Glu161 = Glu161 (UniProt position 144, GRLTREDVEKH)
Asp129 = Asp129 (UniProt position 112, EEQNNDALSPA)
Asp145 = Asp145 (UniProt position 128, AEHNLDASAIK)
Glu164 = Glu164 (UniProt position 147, TREDVEKHLAK)
Glu141 = Glu141 (UniProt position 124, RRLLAEHNLDA)
His166 = His166 (UniProt position 149, EDVEKHLAKAP)
Asp162 = Asp162 (UniProt position 145, RLTREDVEKHL)
His142 = His142 (UniProt position 125, RLLAEHNLDAS)
Glu68 = Glu68 (UniProt position 68, QDVASECEVKC)
Glu88 = Glu88 (UniProt position 88, GQKVGEFSGAN)
Glu103 = Glu103 (UniProt position 103, EATINELV---)
Asp20 = Asp20 (UniProt position 20, LDAAGDKLVVV)
Glu6 [7] = biological target: Glu6 (UniProt position 6, MVKQIESKTAF)
Glu70 = Glu70 (UniProt position 70, VASECEVKCMP)
Asp16 = Asp16 (UniProt position 16, FQEALDAAGDK)
Glu47 = Glu47 (UniProt position 47, FHSLSEKYSNV)
Glu13 = Glu13 (UniProt position 13, KTAFQEALDAA)
Asp58 = Asp58 (UniProt position 58, IFLEVDVDDCQ)
Glu56 = Glu56 (UniProt position 56, NVIFLEVDVDD)
Asp64 = Asp64 (UniProt position 64, VDDCQDVASEC)
Glu98 = Glu98 (UniProt position 98, NKEKLEATINE)
Asp61 = Asp61 (UniProt position 61, EVDVDDCQDVA)
Asp60 = Asp60 (UniProt position 60, LEVDVDDCQDV)
Glu95 = Glu95 (UniProt position 95, SGANKEKLEAT)
Asp70 = Asp70 (UniProt position 70, VILSTDSQYVR)
Glu57 [8] = biological target: Glu57 (UniProt position 57, AIVALEALKEH)
Glu147 = Glu147 (UniProt position 147, MNPTLEDTGYQ)
His62 = His62 (UniProt position 62, EALKEHCEVIL)
Glu32 = Glu32 (UniProt position 32, RYRGREKTFSA)
Glu61 = Glu61 (UniProt position 61, LEALKEHCEVI)
Glu48 [9] = biological target: Glu48 (UniProt position 48, TNNRMELMAAI)
Glu129 [10] = biological target: Glu129 (UniProt position 129, HAGHPENERCD)
His124 = His124 (UniProt position 124, EWVKGHAGHPE)
Glu131 = Glu131 (UniProt position 131, GHPENERCDEL)
His127 = His127 (UniProt position 127, KGHAGHPENER)
Asp94 = Asp94 (UniProt position 94, GWKTADKKPVK)
Glu154 = Glu154 (UniProt position 154, TGYQVEV----)
Asp10 = Asp10 (UniProt position 10, VEIFTDGSCLG)
Glu119 = Glu119 (UniProt position 119, HQIKWEWVKGH)
Glu135 [11] = biological target: Glu135 (UniProt position 135, NERCDELARAA)
Asp134 = Asp134 (UniProt position 134, ENERCDELARA)
Asp108 = Asp108 (UniProt position 108, LWQRLDAALGQ)
Glu64 = Glu64 (UniProt position 64, LKEHCEVILST)
Glu6 [12] = biological target: Glu6 (UniProt position 6, MLKQVEIFTDG)

Villin headpiece subdomain HP36 (Gallus gallus (inferred))
pKa (Asp46): 3.5 | pKa (Glu45): 4 | pKa (Glu72): 4.4 | pKa (Asp44): 3.1

Ribonuclease A (RNaseA) (Bos taurus (inferred))
pKa (Asp38): 3.5 | pKa (Glu9): 4 | pKa (Glu111): 3.6 | pKa (Glu86): 4.1 | pKa (Asp14): 2 | pKa (His48): 6 | pKa (Asp83): 3.5 | pKa (Asp53): 3.9 | pKa (Glu49): 4.7 | pKa (His119): 6.1 | pKa (His12): 6.2 | pKa (Asp121): 3.1 | pKa (His105): 6.7 | pKa (Glu2): 2.8

Staphylococcal nuclease (SNase) (Staphylococcus aureus (inferred))
pKa (Glu75): 3.3 | pKa (His8): 6.5 | pKa (Asp40): 3.9 | pKa (Glu122): 3.9 | pKa (Glu43): 4.3 | pKa (Glu101): 3.8 | pKa (Asp19): 2.2 | pKa (Asp21): 6.5 | pKa (His121): 5.2 | pKa (Glu129 [1]): 3.8 | pKa (Glu52): 3.9 | pKa (Glu10): 2.8 | pKa (Asp95): 2.2 | pKa (Glu73): 3.3 | pKa (Glu67): 3.8 | pKa (Glu57 [2]): 3.5 | pKa (Glu135 [3]): 3.8

Turkey ovomucoid third domain (OMTKY3) (Meleagris gallopavo (inferred))
pKa (Glu20): 3.2 | pKa (Glu11): 4.1 | pKa (Glu44): 4.8 | pKa (Asp27): 2.3 | pKa (His53): 7.5 | pKa (Asp8 [4]): 2.7

Xylanase (family 11 endo-1,4-beta-xylanase) (Bacillus circulans (inferred))
pKa (Asp122): 3.6 | pKa (Asp5): 3 | pKa (Asp12): 2.5 | pKa (His157): 6.5 | pKa (Glu79): 4.6 | pKa (Asp120): 3.2 | pKa (Asp107): 2.7

N-terminal domain of ribosomal protein L9 (NTL / NTL9) (Geobacillus stearothermophilus (inferred))
pKa (Glu48 [5]): 4.2 | pKa (Asp23): 3.1 | pKa (Glu38): 4 | pKa (Glu54): 4.2 | pKa (Asp8 [6]): 3 | pKa (Glu17): 3.6

BBL (peripheral subunit-binding domain of 2-oxoglutarate dehydrogenase E2) (Escherichia coli (inferred))
pKa (Glu161): 3.7 | pKa (Asp129): 3.9 | pKa (Asp145): 3.7 | pKa (Glu164): 4.5 | pKa (Glu141): 4.5 | pKa (His166): 5.4 | pKa (Asp162): 3.2 | pKa (His142): 6.5

Thioredoxin (residue set of human thioredoxin) (Homo sapiens (inferred from residue set; not stated))
pKa (Glu68): 4.9 | pKa (Glu88): 3.7 | pKa (Glu103): 4.4 | pKa (Asp20): 3.8 | pKa (Glu6 [7]): 4.8 | pKa (Glu70): 4.6 | pKa (Asp16): 4 | pKa (Glu47): 4.1 | pKa (Glu13): 4.4 | pKa (Asp58): 5.3 | pKa (Glu56): 5.1 | pKa (Asp64): 3.2 | pKa (Glu98): 3.9 | pKa (Asp61): 4.2 | pKa (Asp60): 2.8 | pKa (Glu95): 4.1

Ribonuclease HI (RNaseH) (Escherichia coli)
pKa (Asp70): 2.6 | pKa (Glu57 [8]): 3.2 | pKa (Glu147): 4.2 | pKa (His62): 7 | pKa (Glu32): 3.6 | pKa (Glu61): 3.9 | pKa (Glu48 [9]): 4.4 | pKa (Glu129 [10]): 3.6 | pKa (His124): 7.1 | pKa (Glu131): 4.3 | pKa (His127): 7.9 | pKa (Asp94): 3.2 | pKa (Glu154): 4.4 | pKa (Asp10): 6.1 | pKa (Glu119): 4.1 | pKa (Glu135 [11]): 4.3 | pKa (Asp134): 4.1 | pKa (Asp108): 3.2 | pKa (Glu64): 4.4 | pKa (Glu6 [12]): 4.5
